Source: US20200048348A1 (TENEOBIO, published 2020)
Where a chain is given by its changes, count along the chain named.

B1: SEQ ID NO 10 (antibody, IgG1, V domains shown)
VH: EVQLVESGGGLVQPGRSLRLSCAASGFTFDNYAMHWVRQAPGKGLEWVSGISWNSGSIGYADSVKGRFTISRDNAKNSLYLQMNSLRAEDTALYYCAKDSRGYGDYSRGGAYWGQGTLVTVSS
VL: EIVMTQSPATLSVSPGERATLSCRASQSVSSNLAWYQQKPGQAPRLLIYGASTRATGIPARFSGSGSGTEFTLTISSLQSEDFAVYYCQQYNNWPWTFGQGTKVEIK
notes: also called FlicAb
B2: SEQ ID NO 13 (antibody, IgG1, V domains shown)
VH: B1 VH with D30H, R108L
VL: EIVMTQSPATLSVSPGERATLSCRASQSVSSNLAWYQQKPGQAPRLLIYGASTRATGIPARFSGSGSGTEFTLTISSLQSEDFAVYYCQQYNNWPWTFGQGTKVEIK
notes: also called FlicAb
B3: SEQ ID NO 6 (antibody, IgG1, V domains shown)
VH: B1 VH with D30A, G59D
VL: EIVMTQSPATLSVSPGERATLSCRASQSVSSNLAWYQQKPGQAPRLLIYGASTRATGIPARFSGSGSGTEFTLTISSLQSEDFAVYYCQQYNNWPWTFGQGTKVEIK
notes: also called FlicAb
B4: SEQ ID NO 7 (antibody, IgG1, V domains shown)
VH: B1 VH with D30N, A88G
VL: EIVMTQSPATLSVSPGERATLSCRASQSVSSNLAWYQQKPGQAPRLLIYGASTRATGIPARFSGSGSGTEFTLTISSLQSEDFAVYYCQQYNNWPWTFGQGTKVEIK
notes: also called FlicAb
B5: SEQ ID NO 1 (antibody, IgG1, V domains shown)
VH: B1 VH with N31D, S107R, R108L
VL: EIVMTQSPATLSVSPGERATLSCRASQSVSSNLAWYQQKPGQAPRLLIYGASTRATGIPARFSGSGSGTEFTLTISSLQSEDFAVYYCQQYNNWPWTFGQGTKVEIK
notes: also called FlicAb

Target: human CD3 (human, UniProt P07766 23-207; P04234 22-171)
Assay: flow cytometry, parental monospecific anti-CD3 on Jurkat cells; antibody concentration not given

Chain of human CD3 (P07766 23-207, one chain of several): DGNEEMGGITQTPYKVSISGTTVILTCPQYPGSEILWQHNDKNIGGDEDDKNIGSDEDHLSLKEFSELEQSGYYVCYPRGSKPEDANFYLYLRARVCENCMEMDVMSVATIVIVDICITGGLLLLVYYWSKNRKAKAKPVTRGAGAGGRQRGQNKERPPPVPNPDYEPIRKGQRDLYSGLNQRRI

Row | Binder | Jurkat cell bind (MFI)
1 | B1 | 30.5 MFI
2 | B2 | 21.4 MFI
3 | B3 | 32.7 MFI
4 | B4 | 32.4 MFI
5 | B5 | 6.1 MFI
